The values that follow come from US20210228629A1.

In assay [1] the target is BCMA protein (UniProt Q02223). The assay is described as follows: cell-based or functional assay.
For assay [2], the target named is BCMA expressed on K562 Very High-BCMA cells (UniProt Q02223). The assay is described as follows: cell-based or functional assay.

B1: anti-BCMA CAR (co-stimulatory domain not specified for the experiment) (protein, part only; not given: CAR hinge, transmembrane, signaling domains, part only)
chain, part: DIVLTQSPPSLAMSLGKRATISCRASESVTILGSHLIHWYQQKPGQPPTLLIQLASNVQTGVPARFSGSGSRTDFTLTIDPVEEDDVAVYYCLQSRTIPRTFGGGTKLEIKGSTSGSGKPGSGEGSTKGQIQLVQSGPELKKPGETVKISCKASGYTFTDYSINWVKRAPGKGLKWMGWINTETREPAYAYDFRGRFAFSLETSASTAYLQINNLKYEDTATYFCALDYSYAMDYWGQGTSVTVSS
For the molecule B1, the CD107a+ cells (%), degranulation after 18 hours is 22.2% in assay [1] and 3.82% in assay [2].
